The record followed here is WO2021190480A1 (dated 2021).

The target in the assay is T1, His-tagged human TROP-2 protein (TROP-2-His), Sino Biological cat# 10428-H08H (human, UniProt P09758 27-274).
T1 construct: also called TROP-2His protein; human TROP-2His antigen; not shown: His tag
T1 sequence (looked up): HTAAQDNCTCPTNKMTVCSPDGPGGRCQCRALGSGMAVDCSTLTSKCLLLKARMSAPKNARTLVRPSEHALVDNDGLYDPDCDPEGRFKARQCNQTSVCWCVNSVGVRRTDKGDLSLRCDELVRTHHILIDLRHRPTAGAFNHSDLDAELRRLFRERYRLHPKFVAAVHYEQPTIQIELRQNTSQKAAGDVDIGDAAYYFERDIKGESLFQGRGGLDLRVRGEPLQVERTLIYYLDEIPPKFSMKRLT
As to the kind of experiment: indirect ELISA, TROP-2-His coated at 1 ug/ml. (In general: An ELISA detects its analyte on a solid surface through an enzyme-linked reagent.)

B1: murine monoclonal antibody M1 (antibody, V domains shown)
VH: QVQLQQPGAELVRPGASVKLSCRASGYTFTNYWMNWVKQRPEQGLEWIGRIDPNDSETHYNQKFKDRAILTVDKASNTAYMQLSGLTSEDSAVHYCARSGFGSTYWFFDVWGAGTTVTVSS
VL: DIVMTQSHKFMSTSVGDRVSITCKASQDVSTAVAWYQQKPGQSPKLLIYSASYRYTGVPDRFAGSGYGTDFTFTISSVQTEDLTVYHCQQHYSTPLTFGPGTRLELK
In general, EC50 refers to the concentration at which the effect is half-maximal. Low readings indicate an effect from little substance, high ones a need for much substance. Molecule B1 yielded an EC50 of 0.56 nM.
